Experimental data: PMC5778809

Molecular target: SELENOF’-YFP (human selenoprotein F with Sec changed to Cys, fused to enhanced yellow fluorescence protein) (human) (UniProt O60613)
Test: FRET or BRET; acceptor photobleaching in HEK293T cells co-transfected with pEYFP-N1 and pECFP-C1 constructs; YFP bleached at 515 nm, CFP read before and after; confocal microscope

UniProt O60613, sequence (O60613 32-165): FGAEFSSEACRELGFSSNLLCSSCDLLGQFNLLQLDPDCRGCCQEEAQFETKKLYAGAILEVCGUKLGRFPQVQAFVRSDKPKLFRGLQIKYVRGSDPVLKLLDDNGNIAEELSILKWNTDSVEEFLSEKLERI

FRET energy transfer efficiency: 29.2% | estimated distance between donor and acceptor (FRET): 5.51 nm
B1: CFP-RDH11 (human retinol dehydrogenase 11 fused to cyan fluorescence protein) (enzyme)
chain: VELMFPLLLLLLPFLLYMAAPQIRKMLSSGVCTSTVQLPGKVVVVTGANTGIGKETAKELAQRGARVYLACRDVEKGELVAKEIQTTTGNQQVLVRKLDLSDTKSIRAFAKGFLAEEKHLHVLINNAGVMMCPYSKTADGFEMHIGVNHLGHFLLTHLLLEKLKESAPSRIVNVSSLAHHLGRIHFHNLQGEKFYNAGLAYCHSKLANILFTQELARRLKGSGVTTYSVHPGTVQSELVRHSSFMRWMWWLFSFFIKTPQQGAQTSLHCALTEGLEILSGNHFSDCHVAWVSAQARNETIARRLWDVSCDLLGLPID
